Source: paper PMC12990809

Legend:
Test in all cases: pulldown
Details in all cases: 20 nM protein, 1.5 uM RNA pool; 20 mM HEPES pH 7.8, 70 mM KCl, 10 mM NaCl, 10% glycerol, 2 mM DTT, 0.1 ug/uL BSA; 30 min, 4 C
[1] = molecular target: T1, MBNL2 (Homo sapiens) (UniProt Q5VZF2)
T1 sequence: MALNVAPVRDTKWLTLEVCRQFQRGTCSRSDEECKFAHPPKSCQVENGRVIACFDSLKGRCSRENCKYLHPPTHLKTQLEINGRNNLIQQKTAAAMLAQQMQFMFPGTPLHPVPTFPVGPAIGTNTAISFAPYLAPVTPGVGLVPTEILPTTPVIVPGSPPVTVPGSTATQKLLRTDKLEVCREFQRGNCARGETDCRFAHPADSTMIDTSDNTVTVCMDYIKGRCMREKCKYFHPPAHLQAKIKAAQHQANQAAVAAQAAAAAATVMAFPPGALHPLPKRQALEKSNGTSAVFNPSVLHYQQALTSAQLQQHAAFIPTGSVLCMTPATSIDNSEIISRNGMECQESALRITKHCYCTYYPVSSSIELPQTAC

[2] = molecular target: T2, rsp-2 (Caenorhabditis elegans) (UniProt Q23120)
T2 sequence: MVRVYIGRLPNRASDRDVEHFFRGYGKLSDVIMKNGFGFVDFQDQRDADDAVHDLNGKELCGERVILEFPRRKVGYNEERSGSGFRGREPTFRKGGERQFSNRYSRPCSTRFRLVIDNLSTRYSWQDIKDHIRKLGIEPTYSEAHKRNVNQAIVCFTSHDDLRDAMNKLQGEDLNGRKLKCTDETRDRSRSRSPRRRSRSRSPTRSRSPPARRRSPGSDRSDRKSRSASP

[3] = molecular target: T3, DDB_G0286331 (Dictyostelium discoideum) (UniProt Q54M41)
T3 sequence: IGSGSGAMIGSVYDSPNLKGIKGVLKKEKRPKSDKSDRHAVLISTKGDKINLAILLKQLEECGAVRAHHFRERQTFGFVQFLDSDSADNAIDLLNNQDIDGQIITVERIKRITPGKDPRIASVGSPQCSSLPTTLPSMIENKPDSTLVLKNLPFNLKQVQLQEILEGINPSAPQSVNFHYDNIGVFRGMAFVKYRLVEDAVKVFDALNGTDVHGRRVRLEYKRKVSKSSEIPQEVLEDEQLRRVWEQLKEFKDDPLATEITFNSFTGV

[4] = molecular target: T4, SCL30 (Arabidopsis thaliana) (UniProt Q8L3X8)
T4 sequence: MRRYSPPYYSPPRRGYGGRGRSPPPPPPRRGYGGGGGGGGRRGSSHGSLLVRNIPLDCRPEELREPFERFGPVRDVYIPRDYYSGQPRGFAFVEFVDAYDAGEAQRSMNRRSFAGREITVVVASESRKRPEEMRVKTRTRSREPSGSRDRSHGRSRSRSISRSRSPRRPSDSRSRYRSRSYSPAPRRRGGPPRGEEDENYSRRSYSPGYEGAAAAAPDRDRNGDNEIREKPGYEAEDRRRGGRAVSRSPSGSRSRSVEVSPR

[5] = molecular target: T5, CBG15837 R479I (Caenorhabditis briggsae) (UniProt A8XMX3)
T5 sequence: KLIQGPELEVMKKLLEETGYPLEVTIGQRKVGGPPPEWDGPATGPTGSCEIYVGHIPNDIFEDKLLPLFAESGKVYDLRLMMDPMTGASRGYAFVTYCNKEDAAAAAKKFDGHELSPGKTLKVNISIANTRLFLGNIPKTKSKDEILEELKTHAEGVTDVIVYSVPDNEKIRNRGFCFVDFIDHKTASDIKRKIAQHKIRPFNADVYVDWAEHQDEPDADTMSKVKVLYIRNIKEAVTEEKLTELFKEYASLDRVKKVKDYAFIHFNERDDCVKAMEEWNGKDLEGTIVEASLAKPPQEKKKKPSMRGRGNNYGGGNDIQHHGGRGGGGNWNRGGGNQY

[6] = molecular target: T6, PK20300.1 (Cannabis sativa) (UniProt A0A803QWA0)
T6 sequence: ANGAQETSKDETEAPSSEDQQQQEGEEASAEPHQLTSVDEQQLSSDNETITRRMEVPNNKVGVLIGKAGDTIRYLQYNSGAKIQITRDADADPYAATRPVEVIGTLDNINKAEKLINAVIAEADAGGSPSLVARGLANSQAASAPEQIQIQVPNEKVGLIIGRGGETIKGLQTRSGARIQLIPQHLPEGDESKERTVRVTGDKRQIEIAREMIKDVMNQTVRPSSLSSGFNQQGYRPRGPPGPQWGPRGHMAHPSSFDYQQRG

[7] = molecular target: T7, PFI1175c (Plasmodium falciparum) (UniProt Q8I2R8)
T7 sequence: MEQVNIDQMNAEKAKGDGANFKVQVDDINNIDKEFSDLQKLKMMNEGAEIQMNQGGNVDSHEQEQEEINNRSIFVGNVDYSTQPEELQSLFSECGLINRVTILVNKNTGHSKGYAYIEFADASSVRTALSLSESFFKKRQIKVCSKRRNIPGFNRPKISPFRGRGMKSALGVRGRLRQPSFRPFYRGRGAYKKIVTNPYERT

[8] = tested on: T8, PK23842.1 (Cannabis sativa)
T8 sequence: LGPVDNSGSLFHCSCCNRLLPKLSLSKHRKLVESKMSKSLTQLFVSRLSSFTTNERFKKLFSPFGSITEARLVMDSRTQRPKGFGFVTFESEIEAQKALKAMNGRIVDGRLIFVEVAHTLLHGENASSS

[9] = molecular target: T9, PK15181.1 (Cannabis sativa) (UniProt A0A7J6E558)
T9 sequence: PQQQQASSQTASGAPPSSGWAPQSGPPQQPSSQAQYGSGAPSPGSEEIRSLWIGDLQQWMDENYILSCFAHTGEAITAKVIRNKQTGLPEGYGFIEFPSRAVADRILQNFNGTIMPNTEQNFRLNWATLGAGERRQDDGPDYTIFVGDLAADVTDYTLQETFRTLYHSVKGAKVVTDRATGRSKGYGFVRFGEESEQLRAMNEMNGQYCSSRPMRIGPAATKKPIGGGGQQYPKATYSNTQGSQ

[10] = molecular target: T10, PK23225.1 P17S (Cannabis sativa) (UniProt A0A7J6EWR7)
T10 sequence: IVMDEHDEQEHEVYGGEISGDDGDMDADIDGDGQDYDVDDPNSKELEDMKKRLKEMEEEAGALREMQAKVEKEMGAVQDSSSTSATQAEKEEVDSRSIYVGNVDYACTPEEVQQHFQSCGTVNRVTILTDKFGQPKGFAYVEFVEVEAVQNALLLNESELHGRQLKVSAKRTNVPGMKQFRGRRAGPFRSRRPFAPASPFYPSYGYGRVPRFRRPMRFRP

Q: Which binding signal (z-score (mean of top ten 7-mers)) [1] does the source give for GCUUGC [RNAcompete motif RNCMPT00401] here?
A: Its binding signal (z-score (mean of top ten 7-mers)) is 10.7.

Q: For GGAGGAG [RNAcompete motif RNCMPT00352], which binding signal (z-score (mean of top ten 7-mers)) [2] is on record?
A: The binding signal (z-score (mean of top ten 7-mers)) was 9.21.

Q: With AUAAAC [RNAcompete motif RNCMPT00351] as the sequence, how does the binding signal (z-score (mean of top ten 7-mers)) [3] read?
A: Its binding signal (z-score (mean of top ten 7-mers)) is 8.36.

Q: Which binding signal (z-score (mean of top ten 7-mers)) [4] does the source give for AGAAGA [RNAcompete motif RNCMPT00382] here?
A: The binding signal (z-score (mean of top ten 7-mers)) was 7.94.

Q: For AAAAAUUU [RNAcompete motif RNCMPT00344], which binding signal (z-score (mean of top ten 7-mers)) [5] is on record?
A: Its binding signal (z-score (mean of top ten 7-mers)) is 9.1.

Q: With AGCAUGA [RNAcompete motif RNCMPT00360] as the sequence, how does the binding signal (z-score (mean of top ten 7-mers)) [6] read?
A: Its binding signal (z-score (mean of top ten 7-mers)) is 11.4.

Q: How did the binding signal (z-score (mean of top ten 7-mers)) [7] turn out when AAAAAGA [RNAcompete motif RNCMPT00380] was run?
A: The binding signal (z-score (mean of top ten 7-mers)) was 9.25.

Q: How did the binding signal (z-score (mean of top ten 7-mers)) [8] turn out when AAUCCA [RNAcompete motif RNCMPT00372] was run?
A: The binding signal (z-score (mean of top ten 7-mers)) was 6.16.

Q: Which binding signal (z-score (mean of top ten 7-mers)) [9] does the source give for UUUUUU [RNAcompete motif RNCMPT00345] here?
A: The binding signal (z-score (mean of top ten 7-mers)) was 9.71.

Q: AAAAAGA [RNAcompete motif RNCMPT00370] was tested. Which binding signal (z-score (mean of top ten 7-mers)) [10] did it give?
A: The binding signal (z-score (mean of top ten 7-mers)) was 12.
